# Measurements taken from the supplement of paper PMC9112550, “Optimization of the antimicrobial peptide Bac7 by deep mutational scanning” (BMC Biology, 2022).
# Tested on: Escherichia coli TOP10
# Test: shrunken log2 fold change of peptide-encoding DNA abundance (4.5 h post-induction vs induction); higher = less antimicrobial activity (less host growth inhibition)
# Conditions: time post-induction: 4.5 h; library: site-saturation at positions 5, 18, 19, 20
# 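Further: peptides expressed intracellularly from a pBAD plasmid library in pooled LB shake-flask culture, induced with 0.3% L-arabinose, DNA abundance read by NGS, three biological replicates, DESeq2 with apeglm shrinkage.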
row,Sequence,shrunken log2 fold change
1,RRIRLRPPRLPRPRPRPVVEPRP,0.175
2,RRIRHRPPRLPRPRPRPNPKPRP,-0.0127
3,RRIRWRPPRLPRPRPRPCRLPRP,0.0377
4,RRIRCRPPRLPRPRPRPECRPRP,0.0543
5,RRIRDRPPRLPRPRPRPNIPPRP,-0.623
6,RRIRGRPPRLPRPRPRPGENPRP,-0.0369
7,RRIRIRPPRLPRPRPRPMMWPRP,-0.00731
8,RRIRFRPPRLPRPRPRPRAPPRP,0.821
9,RRIRCRPPRLPRPRPRPMKGPRP,0.0113
10,RRIRNRPPRLPRPRPRPSIHPRP,-0.185
11,RRIRMRPPRLPRPRPRPPYEPRP,0.0457
12,RRIRKRPPRLPRPRPRPNPYPRP,-0.384
13,RRIRARPPRLPRPRPRPGDCPRP,0.366
14,RRIRLRPPRLPRPRPRPLGNPRP,0.102
15,RRIRRRPPRLPRPRPRPDMKPRP,-0.124
16,RRIRMRPPRLPRPRPRPTPMPRP,0.981
17,RRIRCRPPRLPRPRPRPPAPPRP,1.11
18,RRIRARPPRLPRPRPRPTSYPRP,-0.0752
19,RRIRMRPPRLPRPRPRPWEPPRP,0.127
20,RRIRARPPRLPRPRPRPLENPRP,0.595
21,RRIRLRPPRLPRPRPRPPDAPRP,0.524
22,RRIRTRPPRLPRPRPRPWFHPRP,-0.362
23,RRIRIRPPRLPRPRPRPSCTPRP,-0.407
24,RRIRVRPPRLPRPRPRPEKCPRP,0.0903
25,RRIRCRPPRLPRPRPRPETKPRP,0.0774

row,Sequence,shrunken log2 fold change
1,RRIRYRPPRLPRPRPRPLISPRP,-0.596
2,RRIRNRPPRLPRPRPRPEDWPRP,-0.0232
3,RRIRRRPPRLPRPRPRPKASPRP,0.183
4,RRIRSRPPRLPRPRPRPELSPRP,0.963
5,RRIRPRPPRLPRPRPRPCGDPRP,0.078
6,RRIRYRPPRLPRPRPRPQSKPRP,-0.607
7,RRIRERPPRLPRPRPRPNPIPRP,-0.213
8,RRIRSRPPRLPRPRPRPHLCPRP,-0.121
9,RRIRLRPPRLPRPRPRPFPLPRP,-0.0787
10,RRIRTRPPRLPRPRPRPHQMPRP,0.0521
11,RRIRTRPPRLPRPRPRPPELPRP,0.194
12,RRIRHRPPRLPRPRPRPKMSPRP,0.166
13,RRIRARPPRLPRPRPRPFSNPRP,-0.342
14,RRIRSRPPRLPRPRPRPHDWPRP,-0.323
15,RRIRNRPPRLPRPRPRPCNLPRP,-0.134
16,RRIRERPPRLPRPRPRPDREPRP,-0.0729
17,RRIRNRPPRLPRPRPRPIQTPRP,-0.0112
18,RRIRNRPPRLPRPRPRPPTCPRP,-0.221
19,RRIRCRPPRLPRPRPRPTYLPRP,-0.292
20,RRIRWRPPRLPRPRPRPRWNPRP,-0.0693
21,RRIRVRPPRLPRPRPRPELQPRP,-0.0355
22,RRIRVRPPRLPRPRPRPGDGPRP,0.532
23,RRIRFRPPRLPRPRPRPMQVPRP,-0.228
24,RRIRLRPPRLPRPRPRPRTRPRP,0.519
25,RRIRLRPPRLPRPRPRPLEDPRP,-0.076

row,Sequence,shrunken log2 fold change
1,RRIRERPPRLPRPRPRPNRTPRP,-1.51
2,RRIRSRPPRLPRPRPRPLCYPRP,-0.535
3,RRIRERPPRLPRPRPRPSKGPRP,-0.35
4,RRIRKRPPRLPRPRPRPWAHPRP,4.43
5,RRIRRRPPRLPRPRPRPMSQPRP,0.247
6,RRIRTRPPRLPRPRPRPNTIPRP,-0.596
7,RRIRFRPPRLPRPRPRPIMSPRP,-0.0555
8,RRIRNRPPRLPRPRPRPSTVPRP,-0.103
9,RRIRKRPPRLPRPRPRPGYWPRP,-0.00764
10,RRIRRRPPRLPRPRPRPKAPPRP,0.0122
11,RRIRGRPPRLPRPRPRPYKFPRP,-0.138
12,RRIRHRPPRLPRPRPRPQLSPRP,-0.000101
13,RRIRSRPPRLPRPRPRPWQLPRP,-0.018
14,RRIRARPPRLPRPRPRPNKYPRP,-0.449
15,RRIRARPPRLPRPRPRPHLMPRP,0.0747
16,RRIRYRPPRLPRPRPRPTPCPRP,-0.122
17,RRIRGRPPRLPRPRPRPGSCPRP,1.03
18,RRIRMRPPRLPRPRPRPTFQPRP,0.428
19,RRIRWRPPRLPRPRPRPQNWPRP,0.215
20,RRIRWRPPRLPRPRPRPLAVPRP,0.541
21,RRIRCRPPRLPRPRPRPRSYPRP,-0.233
22,RRIRGRPPRLPRPRPRPGPYPRP,0.324
23,RRIRERPPRLPRPRPRPWWWPRP,0.0554
24,RRIRARPPRLPRPRPRPGISPRP,0.337
25,RRIRARPPRLPRPRPRPWSAPRP,0.132

row,Sequence,shrunken log2 fold change
1,RRIRGRPPRLPRPRPRPGLFPRP,1.01
2,RRIRERPPRLPRPRPRPPWPPRP,0.408
3,RRIRSRPPRLPRPRPRPSSDPRP,-0.107
4,RRIRARPPRLPRPRPRPVWDPRP,0.312
5,RRIRCRPPRLPRPRPRPRHHPRP,-0.088
6,RRIRDRPPRLPRPRPRPAPSPRP,0.367
7,RRIRQRPPRLPRPRPRPKTWPRP,1.14
8,RRIRSRPPRLPRPRPRPPGNPRP,-0.0179
9,RRIRMRPPRLPRPRPRPRWRPRP,0.732
10,RRIRYRPPRLPRPRPRPENTPRP,-0.879
11,RRIRWRPPRLPRPRPRPGVVPRP,0.576
12,RRIRRRPPRLPRPRPRPIQMPRP,0.272
13,RRIRHRPPRLPRPRPRPPPSPRP,0.87
14,RRIRFRPPRLPRPRPRPTKFPRP,-0.355
15,RRIRGRPPRLPRPRPRPLKEPRP,0.343
16,RRIRQRPPRLPRPRPRPMAWPRP,-0.128
17,RRIRYRPPRLPRPRPRPLSDPRP,-0.108
18,RRIRFRPPRLPRPRPRPLPMPRP,0.142
19,RRIRNRPPRLPRPRPRPWHKPRP,-0.0524
20,RRIRTRPPRLPRPRPRPEKAPRP,0.00451
21,RRIRSRPPRLPRPRPRPIRDPRP,0.156
22,RRIRIRPPRLPRPRPRPILAPRP,-0.286
23,RRIRARPPRLPRPRPRPNPEPRP,0.0539
24,RRIRRRPPRLPRPRPRPWMCPRP,0.214
25,RRIRPRPPRLPRPRPRPRGYPRP,0.523

row,Sequence,shrunken log2 fold change
1,RRIRDRPPRLPRPRPRPFSLPRP,-0.176
2,RRIRHRPPRLPRPRPRPCRGPRP,0.00172
3,RRIRVRPPRLPRPRPRPHKRPRP,0.06
4,RRIRMRPPRLPRPRPRPSSWPRP,0.477
5,RRIRRRPPRLPRPRPRPNSSPRP,0.105
6,RRIRYRPPRLPRPRPRPVHSPRP,-0.155
7,RRIRFRPPRLPRPRPRPQLAPRP,0.0569
8,RRIRNRPPRLPRPRPRPQRTPRP,-0.248
9,RRIRPRPPRLPRPRPRPYRTPRP,-0.111
10,RRIRNRPPRLPRPRPRPQCHPRP,-0.42
11,RRIRDRPPRLPRPRPRPLCRPRP,-0.0528
12,RRIRLRPPRLPRPRPRPVMFPRP,-0.268
13,RRIRLRPPRLPRPRPRPTNWPRP,0.0175
14,RRIRQRPPRLPRPRPRPYLKPRP,0.00123
15,RRIRHRPPRLPRPRPRPHQQPRP,0.0121
16,RRIRLRPPRLPRPRPRPMKFPRP,0.0807
17,RRIRLRPPRLPRPRPRPFPYPRP,0.015
18,RRIRARPPRLPRPRPRPSKDPRP,-0.111
19,RRIRSRPPRLPRPRPRPMRIPRP,0.0732
20,RRIRGRPPRLPRPRPRPNHIPRP,-0.444
21,RRIRRRPPRLPRPRPRPHQPPRP,0.557
22,RRIRCRPPRLPRPRPRPPPNPRP,1.27
23,RRIRGRPPRLPRPRPRPMGSPRP,-0.0284
24,RRIRVRPPRLPRPRPRPYLYPRP,-1.05
25,RRIRCRPPRLPRPRPRPLSVPRP,-0.481

row,Sequence,shrunken log2 fold change
1,RRIRTRPPRLPRPRPRPLPFPRP,-0.518
2,RRIRHRPPRLPRPRPRPAICPRP,-0.218
3,RRIRHRPPRLPRPRPRPDHHPRP,0.0587
4,RRIRFRPPRLPRPRPRPCSIPRP,0.0647
5,RRIRRRPPRLPRPRPRPWPSPRP,0.0392
6,RRIRKRPPRLPRPRPRPYTYPRP,-0.119
7,RRIRPRPPRLPRPRPRPFNAPRP,-0.287
8,RRIRARPPRLPRPRPRPAVWPRP,0.64
9,RRIRVRPPRLPRPRPRPQIAPRP,-0.0465
10,RRIRVRPPRLPRPRPRPNIEPRP,-0.616
11,RRIRYRPPRLPRPRPRPYTMPRP,-0.301
12,RRIRWRPPRLPRPRPRPQTVPRP,-0.0322
13,RRIRPRPPRLPRPRPRPCINPRP,-0.726
14,RRIRYRPPRLPRPRPRPFGYPRP,-1.39
15,RRIRQRPPRLPRPRPRPYDTPRP,-0.307
16,RRIRRRPPRLPRPRPRPYGVPRP,0.037
17,RRIRTRPPRLPRPRPRPRNRPRP,-0.0827
18,RRIRSRPPRLPRPRPRPPRLPRP,0.322
19,RRIRWRPPRLPRPRPRPVHSPRP,-0.37
20,RRIRQRPPRLPRPRPRPLESPRP,-0.0344
21,RRIRVRPPRLPRPRPRPYRKPRP,-0.259
22,RRIRSRPPRLPRPRPRPCKMPRP,-0.215
23,RRIRARPPRLPRPRPRPPSHPRP,0.351
24,RRIRVRPPRLPRPRPRPPLLPRP,0.287
25,RRIRDRPPRLPRPRPRPVRSPRP,0.155
